Measured values as given in the DeepSol protein solubility set.

Test: soluble on expression in E. coli; label from the status in PepcDB or PDB records

Row | Sequence | soluble on expression in E. coli
1 | PVVLESKQRGPCAMSRLIVKNLPNGMKEERFRQLFAAFGTLTDCSLKFTKDGKFRKFGFIGFKSEEEAQKAQKHFNKSFIDTSRITVEFCKSFGDPAKPRAWSKHAQKPSQPKQPPKDSTTPEIKKDEKKKKVAGQLEKLKEDTEFQEFLSVHRRRAQAATWANDGLDAEPSKGKSKPASDYLNFDSDSGQESEEEGAGEDLEEEASLEPKAAVQKELSDMDYLKSKMVKAGSSSSSEEEESEDEAVHCDEGSEAEEEDSSATPVLQERDSRGAGQEQGMPAGKKRPPEARAETEKPANQKEPTTCHTVKLRGAPFNVTEKNVMEFLAPLKPVAIRIVRNAHGNKTGYIFVDFSNEEEVKQALKCNREYMGGRYIEVFREKNVPTTKGAPKNTTKSWQGRILGENEEEEDLAESGRLFVRNLPYTSTEEDLEKLFSKYGPLSELHYPIDSLTKKPKGFAFITFMFPEHAVKAYSEVDGQVFQGRMLHVLPSTIKKEASEDASALGSSSYKKKKEAQDKANSASSHNWNTLFMGPNAVADAIAQKYNATKSQVFDHETKGSVAVRVALGETQLVQEVRRFLIDNGVSLDSFSQAAAERSKTVILVKNLPAGTLAAELQETFGRFGSLGRVLLPEGGTTAIVEFLEPLEARKAFRHLAYSKFHHVPLYLEWAPVGVFSSAAPQKKKLQDTPSEPMEKDPAEPETVPDGETPEDENPTEEGADNSSAKMEEEEEEEEEEEESLPGCTLFIKNLNFDTTEEKLKEVFSKVGTVKSCSISKKKNKAGVLLSMGFGFVEYRKPEQAQKALKQLQGHVVDGHKLEVRISERATKPAVTLARKKQVPRKQTTSKILVRNIPFQAHSREIRELFSTFGELKTVRLPKKMTGTGTHRGFGFVDFLTKQDAKRAFNALCHSTHLYGRRLVLEWADSEVTLQALRRKTAAHFHEPPKKKRSVVLDEILEQLEGSDSDSEEQTLQL | soluble
2 | MGLIEDKALVEAALFVAGRPLSLKELSKALGIKSLDYLEKLIELIASEYAERKSAIEIVKVAGDKWVMQVKQEYSQRVIPLMPKPELSTGELKTLALIAYLQPVEQSKIVKLRGSQAYEHIRKLLEMGLIYAEPYERTRLLGTTEKFAELYGFPENDPMLIKETFKKVIHAEYSDLMKKIEESEKKKE | soluble
3 | MGSDKIHHHHHHMLNQQWLTTFIKLVELGHFTHTAEQLFMTQSGVSQQIKKLEQQAGAPLLNRIGKGFELTQAGMALLAHAQALVQQQAELLASFHQDNAYSGECKLACSGSLAMLIYPKLIDRQLQYPELKMSLEAAPNQRIIDRVLDNSIDVGIITQEFAHPELSLRLLGSQRLCLVLPNVWEGRLPRLIEYNFLTELGMIDHPDGMHYWQHFVECHFPQHLPQASKIKRLSYVNQLSQILLPVAKGLGFAVLPEFAIKQVSARDGVLEGLFRVPDASLSAHVASESLYLIQKRHRPLALRYQEIITLIKGLIS | not soluble
4 | MGSDKIHHHHHHMTDMTYDVEQDVVAESERISAIFSEVLDIGQVAATDNFFNLGGDSFDAIRVMSRLDGNLPIVALFEHPTAETLARFRLTEESLAITRLVPLFDQTKTNGPIVVICVPYGGGDPTAYRDLFNDHPDVRVFGVDFGDAEIHSPSDFSGLINTLVNEIEAIDAEQIIVYGHCAGAATAACLASAITFTTSAVSLVVAASNPVDDPDAAIHDAAMTSDADWGQYLRSLGAFNGLTDKETDAMLTKGRRDHFIATEAYRTLARQPARGIPAMLLLGDKDPATVKVEEIVNKWRKIIDLVKSANVTGGEHYFIRTHAQEVASKVLSFQLKHK | not soluble
5 | MLEDDFGREVSGVRVSLTDRCNFDCVYCHNEGLGDTRGPMEAQDDELTADTIVAFLEVAAEFGVDSVKFTGGEPMLREDLEEIVRRAPDEMEVSMTTNGTFLPGRAPDLVDAGLERVNVSQDALDSEAFAELTQSGAYDRVLEGVEAALDAGLEPVKLNMVVFEPTAGYVPKMVDHVAENPGLQLQLIEYMPELAGHPEWAIDIDRVHDWLEDRADKVEHREMHDRKRYWMHSGEAAVEGDSASTSLAASDGGIRTEPVNNHNSGMVEIVDPVGNENFCANCHRVRLTHDGYLKGCLNRNDDLRDIGTTKESMRAAFRETVDTRVPYYGEYMIETEDGEWEINEEYIDTDGDRAPYEYSE | not soluble
6 | MGSDKIHHHHHHQTDTSDERATDSTTAEVTIIYNDERDPLEGFNRAMWDFNYQFLDKYFYRPVAHGYNDILPRPVKTGVNNFVLNFEEPSSMVNNALQGKWGWAANAGGRFTINTTIGLLGVIDVADMMGLQRKQDEFNEVLGYYGVPNGPYFMAPFLGPYVTRELASDWVDGLYFPLSELTMWQSLAKWGLKNLHRRASAIDQERLVDNALDPYTFVKEAYFQHLDYKVYDGDIPVSTDDDELLDEYMTELD | not soluble
